From patent publication US11813280B2, “Reducing beta-catenin and IDO expression to potentiate immunotherapy” (Dicerna Pharmaceuticals, Inc., priority 2018, dated 2023)
Entries after “also recorded” stand apart in the source; their conditions may differ.

Tests used:
[1] = target: IDO1 (Homo sapiens, UniProt P14902); conditions: cited from earlier work
[2] = target: T1, IDO2 (Homo sapiens, UniProt Q6ZQW0); conditions: Pendergast et al., Cancer Research, 2017; cited from earlier work
T1 sequence (Q6ZQW0 1-407): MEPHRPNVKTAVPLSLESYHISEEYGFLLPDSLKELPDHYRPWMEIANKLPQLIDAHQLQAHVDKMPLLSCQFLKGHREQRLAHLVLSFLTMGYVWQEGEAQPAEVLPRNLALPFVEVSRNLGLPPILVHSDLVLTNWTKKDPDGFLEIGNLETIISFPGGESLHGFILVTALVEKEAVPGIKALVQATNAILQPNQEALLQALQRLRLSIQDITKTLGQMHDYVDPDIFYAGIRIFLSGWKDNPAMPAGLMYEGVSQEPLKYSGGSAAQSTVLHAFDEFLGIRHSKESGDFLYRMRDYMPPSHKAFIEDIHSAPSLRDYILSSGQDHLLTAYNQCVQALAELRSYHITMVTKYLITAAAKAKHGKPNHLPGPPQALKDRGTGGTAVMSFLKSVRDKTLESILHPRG

[3] = tested on: advanced melanoma; conditions: combined with pembrolizumab; Phase II study; cited from earlier work
[4] = Siu et al., AACR abstract CT116, 2017; cited from earlier work
[5] = tested on: MMTV-Wnt tumors; assay: Immunohistochemistry of MMTV-Wnt tumors for β-catenin, CD8 and IDO1; format: in vivo, mice; conditions: BCAT1 5 mg/kg per dose study days 1, 2, 3; tumors 24 hours after last dose; 5 mg/kg
Procedure: (§1) In the MMTV-Wnt mouse model, mammary gland specific overexpression of Wnt1 with MMTV-LTR leads to spontaneous breast tumors with activated Wnt/β-catenin signaling. MMTV-Wnt mammary tumors spontaneously grow in mice in 3-6 months from the time of birth with Wnt pathway activation.
To see the effect of β-catenin inhibition on T cell infiltration and IDO1 levels in spontaneous tumors, the MMTV-Wnt1 model was used. The tumors were collected 24 hours after the last dose and subjected to immunohistochemistry to determine β-catenin, CD8, and IDO1 levels.
Tumors were collected 24 hours after the last dose and subjected to immunohistochemistry to determine β-catenin, CD8 and IDO1 levels.

[6] = tested on: 4T1 tumors; assay: Immunohistochemistry of 4T1 tumors for β-catenin, CD8 and IDO1; format: in vivo, Balb/C mice; conditions: BCAT1 3 mg/kg days 6, 7, 12, 13 post-implant, tumors 48 hours after last dose, vs placebo
Procedure: (§2) 6-8-week-old immunocompetent mice (C57BL/6 or Balb/C) were injected subcutaneously with 1.5×10^6B16F10 or 1.5×10^6 4T1 tumor cells under the right shoulder. Tumor volume was measured every 2-3 days a week to monitor tumor growth. Dosing was initiated when the tumors reached about 150-200 mm^3. […] BCAT1 formulated LNP or Placebo (scrambled CTNNB1 dsRNAi) formulated LNP was given intravenously via lateral tail vein at a total volume of 10 ml/kg. Immunotherapy treatments (anti-PD-1 antibody) were given intraperitoneally at a volume of 10 ml/kg.
(§3) Mouse cell lines B16F10 and 4T1 cells were obtained from ATCC (Manassas, Va.) and grown in RPMI/DMEM medium supplemented with 10% FBS. B16F10 cells is a murine melanoma cell line with no Wnt activation or IDO1 activation. 4T1 is a murine breast cell line with Wnt activation and constitutive activation of IDO1.
Balb/C mice were implanted with 4T1 tumors. At six days post 4T1 tumor cell implantation, with the average tumor size of 150-200 mm^3, mice were sorted into two groups and were treated with either placebo or BCAT1 at 3 mg/kg on days 6 and 7 and days 12 and 13 post-implant, as shown in FIG. 1A. 48 hours after the last dose, tumors were collected and assayed by immunohistochemistry for β-catenin, CD8 and IDO1 protein levels.
(§4) Tumors were collected 48 hours after the last dose and were subjected to immunohistochemistry to look at β-catenin, CD8 and IDO1 levels. […] FIG. 3B. FIG. 3B. […] Tumor growth was monitored by measuring the tumor sizes over the course of the treatment period. […] FIG. 3C.

[7] = tested on: B16F10 tumors; assay: Flow cytometry of immune cell infiltrate in B16F10 tumors; format: in vivo, C57BL/6 mice; conditions: BCAT1 3 mg/kg days 6, 7, 12, 13, tumors 24 hours after last dose
Procedure: A similar study was run to monitor the levels of immune cell infiltrate after two rounds of BCAT1 treatment. B16F10 tumors were treated with PBS, placebo, or BCAT1 at 3 mg/kg on days 6 and 7 post-implant and again on days 12 and 13 post-implant, as shown in FIG. 7A. Tumors were collected 24 hours after the last dose and were subjected to flow cytometry. […] The MDSC cell population was not altered. FIG. 7B.

[8] = tested on: B16F10 tumors; assay: B16F10 tumor growth study; format: in vivo, C57BL/6 mice; conditions: BCAT1 single agent 3 mg/kg days 5, 6, 11, 12
Procedure: as §2, §3
In a similar study, B16F10 tumor cells were implanted in C57BL/6 mice and at day 5 post-implant, the mice were randomized into two groups and treated with placebo or BCAT1. This dosing cycle was then repeated on days 11 and 12. Tumor growth was monitored by measuring the tumor sizes over the course of the treatment period. […] FIG. 6C.
Tumor growth was monitored by measuring the tumor sizes over the course of the treatment period. […] FIG. 8C. […]

[9] = tested on: 4T1 tumors; assay: Flow cytometry of surface markers in 4T1 tumors; format: in vivo, Balb/C mice; conditions: BCAT1 3 mg/kg days 6, 7, 12, 13, tumors 24 hours after last dose, vs PBS
Procedure: In another similar study, mice bearing 4T1 tumors were treated with PBS or BCAT1 at 3 mg/kg on days 6 and 7 and days 12 and 13 post-implant, as shown in FIG. 2A. Tumors were collected 24 hours after the last dose and subjected to flow cytometry to measure surface markers on single-cell suspensions prepared from the extracted tumors. […] FIG. 2B. […] FIG. 2B. No effect was observed on the immunosuppressive MDSC cells. FIG. 2B.

[10] = tested on: MMTV-Wnt tumors; assay: MMTV-Wnt tumor growth study; format: in vivo, mice
Procedure: as §1
In another study, MMTV-Wnt tumor-bearing mice were treated with BCAT1 at 3 mg/kg on study days 1, 2, 6, and 7 and tumor growth was monitored.

[11] = tested on: multiple tumor types; assay: Delivery of LNP formulated BCAT1 to tumors in models; format: in vivo
Excerpt: The BCAT1 construct was formulated in EnCore lipid nanoparticles (LNP).

[12] = tested on: B16F10 tumors; assay: Immunohistochemistry of B16F10 tumors for β-catenin, CD8 and IDO1; format: in vivo, C57BL/6 mice; conditions: BCAT1 3 mg/kg days 6, 7, 12, 13 post-implant, tumors 48 hours after last dose, vs placebo
Procedure: as §2, §3
C57BL/6 mice were implanted with B16F10 tumors. At six days post B16F10 tumor cell implantation, with the average tumor size of 200 mm^3, mice were sorted into two groups and were treated with either placebo or BCAT1 at 3 mg/kg on days 6 and 7 post-implant and again on days 12 and 13 post-implant, as shown in FIG. 6A. 48 hours after the last dose, tumors were collected and assayed by immunohistochemistry for β-catenin, CD8 and IDO1 protein levels. […] FIG. 6B.
Tumors were collected 48 hours after the last dose and were subjected to immunohistochemistry to analyze β-catenin, CD8 and IDO1 levels. […] FIG. 8B.

[13] = tested on: 4T1 tumors; assay: 4T1 tumor growth study; format: in vivo, Balb/C mice
Procedure: as §2, §3
In another study, 4T1 tumor cells were implanted in Balb/C mice and 4 days post-implant, the mice were randomized into two groups and treated with placebo or BCAT1. This dosing cycle was then repeated on days 9 and 10. Tumor growth was monitored by measuring the tumor sizes over the course of the treatment period. […] FIG. 1C.
as §4

IDO1, sequence (P14902 whole entry, species assumed): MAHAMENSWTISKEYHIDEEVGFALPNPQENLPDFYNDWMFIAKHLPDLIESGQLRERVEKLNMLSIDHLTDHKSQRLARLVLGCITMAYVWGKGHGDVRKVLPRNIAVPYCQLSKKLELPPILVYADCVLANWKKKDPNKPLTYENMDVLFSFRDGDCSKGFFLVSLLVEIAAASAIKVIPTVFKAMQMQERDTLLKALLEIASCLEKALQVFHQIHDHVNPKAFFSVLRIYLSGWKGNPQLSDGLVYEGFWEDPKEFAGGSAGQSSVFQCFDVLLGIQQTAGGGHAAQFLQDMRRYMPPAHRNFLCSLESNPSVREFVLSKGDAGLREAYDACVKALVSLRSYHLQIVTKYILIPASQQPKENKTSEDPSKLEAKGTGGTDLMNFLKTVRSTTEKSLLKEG

O=C1CC(c2c[nH]c3ccc(F)cc23)C(=O)N1 (stereo not drawn) [PF-06840003]
enzymes targeted / inhibited (IDO1, TDO) [1]: selectively target IDO1

Cn1cc(C[C@@H](N)C(=O)O)c2ccccc21 [indoximod, 1-methyl-D-tryptophan]
inhibition of IDO2 [2]: indirectly inhibit IDO2 | efficacy in patients with advanced melanoma [3]: shown efficacy

C[C@@H](C(=O)Nc1ccc(Cl)cc1)C1CCC(c2ccnc3ccc(F)cc23)CC1 (stereo partly drawn) [BMS-986205]
tolerability in patients with advanced cancers [4]: safely tolerated

B1: BCAT1: nucleic acid inhibitor molecule targeting the β-catenin gene; sense strand SEQ ID NO:1, antisense strand SEQ ID NO:2; formulated in EnCore lipid nanoparticles (nucleic acid)
sense: AGAAUACAAAUGAUGUAGAAACAGCC
antisense: UAGCUAUCGTGGCUGUUUCUACAUCAUUUGUAUUCUGC
modifications: formulated in lipid nanoparticles, chemistry not given here
CD8 levels / CD8 T-cell infiltration (immunohistochemistry) [5]: increases | IDO1 levels (immunohistochemistry) [5]: unchanged; also recorded: does not significantly reduce | β-catenin levels (immunohistochemistry) [5]: decreases | CD8 protein levels / CD8 T-cell infiltration (immunohistochemistry) [6]: increases | IDO1 protein levels (immunohistochemistry) [6]: did not reduce the IDO1 levels significantly; also recorded: does not significantly reduce | β-catenin protein levels (immunohistochemistry) [6]: decreases | CD8 T cells, flow cytometry [7]: elevated; also recorded: increases | LAG-3 checkpoint, flow cytometry [7]: elevated; also recorded: increases | MDSC cell population, flow cytometry [7]: not altered; also recorded: does not significantly alter | PD-1 checkpoint, flow cytometry [7]: elevated; also recorded: increases | Tim-3 checkpoint, flow cytometry [7]: elevated; also recorded: increases | level of Tregs, flow cytometry ([7]; as compared to PBS): did not significantly change; also recorded: does not significantly alter | tumor growth as compared to placebo [8]: did not significantly inhibit tumor growth; also recorded: does not significantly inhibit tumor growth | LAG-3 checkpoint, flow cytometry [9]: significant increases | MDSC cells, flow cytometry [9]: No effect; also recorded: does not significantly alter | PD-1 checkpoint, flow cytometry [9]: significant increases | Regulatory T cells (Tregs), flow cytometry [9]: significantly increased; also recorded: increases | Tim-3 checkpoint, flow cytometry [9]: significant increases | cytotoxic T-cells (CD8+), flow cytometry [9]: significant increases | tumor growth inhibition ([10]; BCAT1 alone 3 mg/kg study days 1, 2, 6, 7): about 50% | tumor growth as compared to placebo ([10]; two cycles of BCAT1 treatment): inhibits tumor growth | Delivery of BCAT1 to Various Tumor Types ([11]; HCT116, DLD1, HL60): Negative: HCT116, DLD1, HL60 | Delivery of BCAT1 to Various Tumor Types ([11]; LNP formulated BCAT1, tumor types of Table I (subcutaneous, orthotopic, disseminated, metastatic xenograft, PDX, GEM)): effectively deliver the nucleic acid payload to multiple tumor types | CD8 protein levels / CD8 T-cell infiltration (immunohistochemistry) [12]: increases | IDO1 protein levels (immunohistochemistry) [12]: decreased; also recorded: reduces | β-catenin protein levels (immunohistochemistry) [12]: decreases | tumor growth inhibition ([13]; BCAT1 alone 3 mg/kg days 4, 5, 9, 10, vs placebo): about 40% | anti-tumor efficacy (tumor volume) ([13]; IDOi orally 100 mg/kg per dose twice daily days 4 and 6, BCAT1 iv 3 mg/kg days 5 and 6, anti-PD-1 antibody ip 5 mg/kg days 7 and 8, single, double or triple agents): modest anti-tumor efficacy | tumor growth as compared to placebo ([13]; two cycles of BCAT1 treatment): inhibits tumor growth
